The values that follow come from paper PMC9104804, “Fine-Tuning Modulation of Oxidation-Mediated Posttranslational Control of Bradyrhizobium diazoefficiens FixK2 Transcription Factor”.

Substitutions are numbered along the chain they refer to.

The target of data set [1] is C183D FixK2 protein variant of Bradyrhizobium diazoefficiens (Bradyrhizobium diazoefficiens) (UniProt Q89RK6). Description: SEC; analytical SEC, Superdex 200 10/300 GL, room temperature, 40 mM Tris-HCl pH 7.0, 150 mM KCl, 0.1 mM EDTA; 100 µL samples loaded at 2.5-30 µM (native) or 2.5-40 µM (C183S, C183D); concentrations refer to the dimeric form; monomer-dimer equilibrium. On the technique in general: In gel filtration, larger molecules generally elute earlier.

Data set [2] has as its target C183S FixK2 protein variant of Bradyrhizobium diazoefficiens (Bradyrhizobium diazoefficiens) (UniProt Q89RK6). Described as above.
Data set [3] has as its target T1, C183D FixK2 C183D (Bradyrhizobium diazoefficiens 110spc4) (UniProt O69245).
T1 sequence: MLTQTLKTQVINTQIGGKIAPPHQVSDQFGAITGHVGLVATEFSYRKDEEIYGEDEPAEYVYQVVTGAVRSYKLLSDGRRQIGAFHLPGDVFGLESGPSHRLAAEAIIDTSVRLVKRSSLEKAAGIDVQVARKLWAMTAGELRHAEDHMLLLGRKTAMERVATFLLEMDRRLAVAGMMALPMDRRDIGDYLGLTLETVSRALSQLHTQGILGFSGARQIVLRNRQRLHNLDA
The data set can be described thus: EMSA. The note with it: EMSA: 40 mM Tris-HCl pH 8, 10 mM MgCl2, 0.1 mM EDTA, 0.1 mM DTT, 150 mM KCl, 0.4 mM K3PO4, room temperature, 30 min; SPR: 40 mM Tris-HCl pH 7.0, 150 mM KCl …; scale: fold higher protein concentration than C183S for similar shift.

Data set [4] addresses T2, C183S FixK2 C183S (Bradyrhizobium diazoefficiens 110spc4) (UniProt O69245).
T2 sequence: T1 sequence with D183S
Description: EMSA. Conditions: EMSA: 40 mM Tris-HCl pH 8, 10 mM MgCl2, 0.1 mM EDTA, 0.1 mM DTT, 150 mM KCl, 0.4 mM K3PO4, room temperature, 30 min; SPR: 40 mM Tris-HCl pH 7.0, 150 mM KCl …. A general note: In EMSA bound probe runs differently from free probe, usually more slowly.

The target of data set [5] is FixK2 protein (native, wild type) of Bradyrhizobium diazoefficiens (Bradyrhizobium diazoefficiens) (UniProt Q89RK6). The data set can be described thus: SEC; analytical SEC, Superdex 200 10/300 GL, room temperature, 40 mM Tris-HCl pH 7.0, 150 mM KCl, 0.1 mM EDTA; 100 µL samples loaded at 2.5-30 µM (native) or 2.5-40 µM (C183S, C183D); concentrations refer to the dimeric form; monomer-dimer equilibrium.

A further data set concerns the target T3, C183S FixK2 (Bradyrhizobium diazoefficiens 110spc4, UniProt O69245 1-232, C183S).
T3 sequence: T1 sequence with D183S
Description: SPR; sensorgram at 250 nM; nanomolar affinity only cited from earlier study; EMSA: 40 mM Tris-HCl pH 8, 10 mM MgCl2, 0.1 mM EDTA, 0.1 mM DTT, 150 mM KCl, 0.4 mM K3PO4, room temperature, 30 min; SPR: 40 mM Tris-HCl pH 7.0, 150 mM KCl, 0.1 mM EDTA, 0.005% Tween 20, 25 °C. Conditions: protein: recombinant; tags: untagged after cleavage of C-terminal Mxe GyrA intein-CBD (IMPACT, pTXB1); chain copies: 2; label: biotin; blunt. A general note: In SPR one partner is held on a chip, and binding of the other changes the refractive index at the surface.

In general, stoichiometry N refers to a count of units in the complex or per binding partner.

In turn, “C183D FixK2 protein variant of Bradyrhizobium diazoefficiens (from UniProt Q89RK6 4-235) (natural protein)” came in with a stoichiometry N in data set [1] of 2. Regarding “C183S FixK2 protein variant of Bradyrhizobium diazoefficiens (from UniProt Q89RK6 4-235) (natural protein)”, the stoichiometry N in data set [2] came out at 2. In the case of “AAGAACACAGCGCCAGAAACCACATTCACCCTCGCGGGGAATTGATTGAAATCAAGATAGGTGGATTTCTGTTAATGTGAGGCTTTCGCG (double strand) [fixNOQP promoter 90-bp PCR fragment]”, in data set [3], the binding signal amounted to 32. The binding result in data set [4] was “binds”. With fixNOQP promoter 90-bp PCR fragment, in data set [3], the binding signal turned out to be 32. Molecule “FixK2 protein (native, wild type) of Bradyrhizobium diazoefficiens (from UniProt Q89RK6 4-235) (natural protein)” registered a stoichiometry N in data set [5] of 2.

B1: fixN_3 FixK2 box duplex (SPR) (dsDNA)
DNA 1: CCACCTATCTTGATTTCAATCAATTCCCCG
DNA 2: CGGGGAATTGATTGAAATCAAGATAGGTGG
modifications: 5'-biotin on reverse strand (S47)
Consider B1, for which the binding result in the data set with C183S FixK2 is “binds”.
